Measurements reported in article PMC6838084, “Direct, gabapentin-insensitive interaction of a soluble form of the calcium channel subunit α2δ-1 with thrombospondin-4” (Scientific Reports, 2019).

Biological target: the molecule itself
Assay: SDS-PAGE and immunoblot without and with DTT; purified proteins separated under non-reducing and reducing conditions; composite agarose/polyacrylamide gel for intact TSPs; oligomers held by interchain disulphide bonds

Row | Protein | stoichiometry N
1 | thrombospondin-4 (TSP-4), recombinant full-length rat, N-terminal double strep II-tag (natural protein, thrombospondin-4, rat, called full-length; the PCR product lacks the natural signal peptide and was cloned in frame with the BM-40 signal peptide; A thrombin cleavage site lies between the tag and the protein; Pentamer held by interchain disulphide bonds; glycosylated; also called full-length pentameric TSP-4; source: HEK293-EBNA, secreted, purified from culture supernatant (streptactin-sepharose)) not shown | 5
2 | thrombospondin-2 (TSP-2), recombinant full-length murine, N-terminal double strep II-tag (natural protein, thrombospondin-2, mouse, called full-length; the PCR product lacks the natural signal peptide and was cloned in frame with the BM-40 signal peptide; A thrombin cleavage site lies between the tag and the protein; Trimer held by interchain disulphide bonds; heavily glycosylated; source: HEK293-EBNA, secreted, purified from culture supernatant (streptactin-sepharose)) not shown | 3
3 | cartilage oligomeric matrix protein (COMP, TSP-5), recombinant full-length rat, N-terminal double strep II-tag (natural protein, cartilage oligomeric matrix protein, rat, called full-length; the PCR product lacks the natural signal peptide and was cloned in frame with the BM-40 signal peptide; A thrombin cleavage site lies between the tag and the protein; Pentamer held by interchain disulphide bonds; also called TSP-5/COMP; source: HEK293-EBNA, secreted, purified from culture supernatant (streptactin-sepharose)) not shown | 5
